Laboratory results published in patent publication US20210277067A1.

Target: HCMV pentameric complex gH/gL/pUL128/pUL130/pUL131A (wild type Pentamer) (HCMV strain Merlin) (UniProt Q6SW67)
Experiment: method not stated

8I21 with HCDR3 Trp105 mutated to alanine (Fab)
fold decrease in binding affinity (against unmutated 8I21): > 150 fold
